{"source": "patent US20220348925", "about": "“COMPOSITIONS AND METHODS FOR THE TARGETING OF SOD1” (Scribe Therapeutics Inc., published 2022)", "molecular_target": "T1, CasX 119 (in cells) (Planctomycetes)", "T1 chain": "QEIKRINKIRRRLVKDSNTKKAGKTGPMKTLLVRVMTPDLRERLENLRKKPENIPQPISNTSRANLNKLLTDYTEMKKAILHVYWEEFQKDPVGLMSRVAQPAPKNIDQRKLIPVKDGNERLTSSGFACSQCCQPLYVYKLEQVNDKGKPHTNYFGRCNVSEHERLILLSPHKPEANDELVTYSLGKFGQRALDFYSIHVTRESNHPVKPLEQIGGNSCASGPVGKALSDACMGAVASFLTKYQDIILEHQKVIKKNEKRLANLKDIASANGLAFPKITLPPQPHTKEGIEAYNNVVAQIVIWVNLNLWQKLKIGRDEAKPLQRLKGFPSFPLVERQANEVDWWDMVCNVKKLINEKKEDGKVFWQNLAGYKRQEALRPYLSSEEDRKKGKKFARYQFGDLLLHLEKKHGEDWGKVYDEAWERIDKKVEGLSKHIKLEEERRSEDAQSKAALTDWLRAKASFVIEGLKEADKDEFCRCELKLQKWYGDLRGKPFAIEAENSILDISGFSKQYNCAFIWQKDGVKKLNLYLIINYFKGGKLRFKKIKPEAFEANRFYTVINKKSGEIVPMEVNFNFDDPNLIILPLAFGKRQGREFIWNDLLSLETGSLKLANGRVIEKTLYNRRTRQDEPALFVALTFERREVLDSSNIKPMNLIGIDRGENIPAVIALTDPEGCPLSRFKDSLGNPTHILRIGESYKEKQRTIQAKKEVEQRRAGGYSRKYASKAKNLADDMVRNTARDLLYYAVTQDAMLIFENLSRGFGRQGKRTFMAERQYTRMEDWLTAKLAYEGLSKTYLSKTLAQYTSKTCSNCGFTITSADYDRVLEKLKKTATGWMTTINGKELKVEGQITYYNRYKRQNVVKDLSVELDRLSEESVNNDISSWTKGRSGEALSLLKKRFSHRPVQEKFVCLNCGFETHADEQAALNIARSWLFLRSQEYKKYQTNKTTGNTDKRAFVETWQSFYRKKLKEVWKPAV", "assay": "cell_activity; TTC PAM; SOD1-GFP reporter, GFP disruption", "details": "tags: NLS", "source_text": "A SOD1-GFP reporter line was constructed by knocking in GFP at the endogenous human SOD1 locus, shown schematically in FIG. 19. A reporter (e.g., GFP reporter) coupled to a gRNA targeting sequence, complementary to the gRNA spacer, is integrated into a reporter cell line. Cells are transformed or transfected with a CasX protein and/or sgRNA variant, with the spacer motif of the sgRNA complementary to and targeting the gRNA target sequence of the reporter. The ability of the CasX:sgRNA ribonucleoprotein complex to cleave the target nucleic acid sequence is assayed by FACS. Cells that lose reporter expression indicate occurrence of CasX:sgRNA ribonucleoprotein complex-mediated cleavage and indel formation. The reporting system is based on reduced GFP fluorescence upon successful modifying (editing) of the SOD1 locus, detected by flow cytometry as shown in FIG. 20.\nCasX 2 (SEQ ID NO:2) and guide 2 (SEQ ID NO:5) (labeled here as StX) and CasX 119 molecule and rRNA guide 64 (119.64) (labeled here as EvoXI) with SOD1 targeting spacers (2, with an encoding sequence of […] (SEQ ID NO: 310), and spacer 4, with an encoding sequence of […] (SEQ ID NO: 366)), were lipofected into SOD1-GFP reporter cells, selected for successful lipofection using puromycin, and later assayed for GFP disruption via FACS."}
{"binder": "sgRNA 64 SOD1 spacer 2 ; SOD1 exon 2 site (spacer 2) (ssRNA ; dsDNA) RNA: GUACUGGCGCCUUUAUCUCAUUACUUUGAGAGCCAUCACCAGCGACUAUGUCGUAUGGGUAAAGCGCUUACGGACUUCGGUCCGUAAGAAGCAUCAAAGAUGUUCAUGAGUUUGGAGAU DNA 1: ATGTTCATGAGTTTGGAGAT DNA 2: ATCTCCAAACTCATGAACAT", "values": [{"measurement": "binding signal", "result": 35, "unit": "fold vs CasX2 guide 2"}]}
